US20110262347A1 (SALK INSTITUTE FOR BIOLOGICAL STUDIES, published 2011)
No end group written: not given here. *: point of attachment. Biotin = O=C1N[C@H]2[C@H](CS[C@H]2CCCCC(=O)*)N1

T1: p32 protein from mouse liver mitochondria extracts (mouse, UniProt O35658 71-278)
T1 construct: Endogenous protein pulled down from detergent lysate of Balb/c mouse liver mitochondria; also called C1qBP; specific band below 36-kDa
T1 sequence (looked up): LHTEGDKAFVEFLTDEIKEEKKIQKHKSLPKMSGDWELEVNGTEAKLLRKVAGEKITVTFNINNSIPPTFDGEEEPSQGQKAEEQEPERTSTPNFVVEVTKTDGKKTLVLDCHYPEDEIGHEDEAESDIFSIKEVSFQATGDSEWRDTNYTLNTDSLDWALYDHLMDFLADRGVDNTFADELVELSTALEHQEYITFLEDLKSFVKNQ

T2: purified p32 protein
T2 chain: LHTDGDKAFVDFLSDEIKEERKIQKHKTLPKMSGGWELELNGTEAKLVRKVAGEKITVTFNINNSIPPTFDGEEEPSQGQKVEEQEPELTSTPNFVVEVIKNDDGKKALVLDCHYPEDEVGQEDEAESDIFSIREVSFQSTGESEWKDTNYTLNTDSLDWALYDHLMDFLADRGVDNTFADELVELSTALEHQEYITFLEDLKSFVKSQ


Tests used:
[1] = target: T1, p32 protein from mouse liver …; assay: pull-down from mitochondria extracts, mass spectrometry
Protocol: Affinity chromatography. […] Gel bands excised from silver-stained gels were analyzed by MALDI-TOF mass spectrometry at the Burnham Institute for Medical Research Proteomics Resource.

purified p32 protein [2] = target: T2, purified p32 protein; assay: comparison of the filing's CGKRK-p32 affinity with a literature value for LyP-1
purified p32 protein [3] = target: T2, purified p32 protein; assay: saturation binding, ELISA-type: biotin-CGKRK on immobilized purified p32, streptavidin-HRP (FIG. 19)

| binding result [1] | fold affinity relative to LyP-1 (purified p32 protein [2]) [fold] | Kd (purified p32 protein [3]) [µg/mL] | Binder |
| --- | --- | --- | --- |
| binds | – | – | CGKRK (Synthetic pentapeptide; also called Cys-Gly-Lys-Arg-Lys; non-labeled CGKRK) [CGKRK peptide] |
| – | 15 | 0.2 | Biotin-CGKRK (Labeled form used in the ELISA-type assays on p32-coated wells, detected with streptavidin-HRP; also called biotin-CGKRK; biotin CGKRK) [biotin-labeled CGKRK peptide] |
